Source: patent US20230374526A1, “FORSKOLIN-INDUCIBLE PROMOTERS AND HYPOXIA-INDUCIBLE PROMOTERS” (ASKLEPIOS BIOPHARMACEUTICAL, INC., priority 2020, published 2023)

B1: HYBN-MLP: hypoxia-inducible promoter, SEQ ID NO: 144; 6 HRE3 elements, MLP (nucleic acid)
DNA: AATAAAATATCTTTATTTTCATTACATCTGTGTGTTGGTTTTTTGTGTGACCTTGAGTACGTGCGTCTCTGCACGTATGGATAAACCTTGAGTACGTGCGTCTCTGCACGTATGTGCGTACCTTGAGTACGTGCGTCTCTGCACGTATGGATAAACCTTGAGTACGTGCGTCTCTGCACGTATGTGCGTACCTTGAGTACGTGCGTCTCTGCACGTATGGATAAACCTTGAGTACGTGCGTCTCTGCACGTATGGGGGGGCTATAAAAGGGGGTGGGGGCGTTCGTCCTCACTCT
modifications: Synp- HYBNMLP
notes: 6 HRE3 elements, MLP
B2: HYBN-TATAm6a: hypoxia-inducible promoter, SEQ ID NO: 147; 6 HRE3 elements, TATAm6a (nucleic acid)
DNA: AATAAAATATCTTTATTTTCATTACATCTGTGTGTTGGTTTTTTGTGTGACCTTGAGTACGTGCGTCTCTGCACGTATGGATAAACCTTGAGTACGTGCGTCTCTGCACGTATGTGCGTACCTTGAGTACGTGCGTCTCTGCACGTATGGATAAACCTTGAGTACGTGCGTCTCTGCACGTATGTGCGTACCTTGAGTACGTGCGTCTCTGCACGTATGGATAAACCTTGAGTACGTGCGTCTCTGCACGTATGTATAAAAGGCAGAGCTCGTTTAGTGAACCGAAGCTTGGACTAAAGCGGACTTGTCTCGAG
modifications: Synp-HYBNTATAm6a
notes: 6 HRE3 elements, TATAm6a
B3: HYBN-C53: hypoxia-inducible promoter, SEQ ID NO: 142; 6 HRE3 elements, CMV53 (nucleic acid)
DNA: AATAAAATATCTTTATTTTCATTACATCTGTGTGTTGGTTTTTTGTGTGACCTTGAGTACGTGCGTCTCTGCACGTATGGATAAACCTTGAGTACGTGCGTCTCTGCACGTATGTGCGTACCTTGAGTACGTGCGTCTCTGCACGTATGGATAAACCTTGAGTACGTGCGTCTCTGCACGTATGTGCGTACCTTGAGTACGTGCGTCTCTGCACGTATGGATAAACCTTGAGTACGTGCGTCTCTGCACGTATGCAACAAAATGTCGTAACAAGGGCGGTAGGCGTGTACGGTGGGAGGTCTATATAAGCAGAGCTCGTTTAGTGAACCG
modifications: Synp-HYBNC53
notes: 6 HRE3 elements, CMV53
B4: HYBN-YB: hypoxia-inducible promoter, SEQ ID NO: 140; 6 HRE3 elements spaced by 5 bp spacers, YB-TATA (nucleic acid)
DNA: AATAAAATATCTTTATTTTCATTACATCTGTGTGTTGGTTTTTTGTGTGACCTTGAGTACGTGCGTCTCTGCACGTATGGATAAACCTTGAGTACGTGCGTCTCTGCACGTATGTGCGTACCTTGAGTACGTGCGTCTCTGCACGTATGGATAAACCTTGAGTACGTGCGTCTCTGCACGTATGTGCGTACCTTGAGTACGTGCGTCTCTGCACGTATGGATAAACCTTGAGTACGTGCGTCTCTGCACGTATGTCTAGAGGGTATATAATGGGGGCCA
modifications: Synp-HYPN
notes: 6 HRE3 elements spaced by 5 bp spacers, YB-TATA
B5: HYBN-C: hypoxia-inducible promoter, SEQ ID NO: 141; 6 HRE3 elements, CMV-MP short (nucleic acid)
DNA: AATAAAATATCTTTATTTTCATTACATCTGTGTGTTGGTTTTTTGTGTGACCTTGAGTACGTGCGTCTCTGCACGTATGGATAAACCTTGAGTACGTGCGTCTCTGCACGTATGTGCGTACCTTGAGTACGTGCGTCTCTGCACGTATGGATAAACCTTGAGTACGTGCGTCTCTGCACGTATGTGCGTACCTTGAGTACGTGCGTCTCTGCACGTATGGATAAACCTTGAGTACGTGCGTCTCTGCACGTATGGCGATTAATCCATATGCGTAGGCGTGTACGGTGGGAGGTCTATATAAGCAGAGCT
modifications: Synp-HYBNC
notes: 6 HRE3 elements, CMV-MP short
B6: HYBN-SV: hypoxia-inducible promoter, SEQ ID NO: 145; 6 HRE3 elements, SV40 (nucleic acid)
DNA: AATAAAATATCTTTATTTTCATTACATCTGTGTGTTGGTTTTTTGTGTGACCTTGAGTACGTGCGTCTCTGCACGTATGGATAAACCTTGAGTACGTGCGTCTCTGCACGTATGTGCGTACCTTGAGTACGTGCGTCTCTGCACGTATGGATAAACCTTGAGTACGTGCGTCTCTGCACGTATGTGCGTACCTTGAGTACGTGCGTCTCTGCACGTATGGATAAACCTTGAGTACGTGCGTCTCTGCACGTATGTGCATCTCAATTAGTCAGCAACCATAGTCCCGCCCCTAACTCCGCCCATCCCGCCCCTAACTCCGCCCAGTTCCGCCCATTCTCCGCCCCATCGCTGACTAATTTTTTTTATTTATGCAGAGGCCGAGGCCGCCTCGGCCTCTGAGCTATTCCAGAAGTAGTGAGGAGGCTTTTTTGGAGGCCTAGGCTTTTGCAAAAAGCTT
modifications: Synp-HYBNSV
notes: 6 HRE3 elements, SV40
B7: HYBN-pJB42: hypoxia-inducible promoter, SEQ ID NO: 146; 6 HRE3 elements, pJB42 (nucleic acid)
DNA: AATAAAATATCTTTATTTTCATTACATCTGTGTGTTGGTTTTTTGTGTGACCTTGAGTACGTGCGTCTCTGCACGTATGGATAAACCTTGAGTACGTGCGTCTCTGCACGTATGTGCGTACCTTGAGTACGTGCGTCTCTGCACGTATGGATAAACCTTGAGTACGTGCGTCTCTGCACGTATGTGCGTACCTTGAGTACGTGCGTCTCTGCACGTATGGATAAACCTTGAGTACGTGCGTCTCTGCACGTATGCTGACAAATTCAGTATAAAAGCTTGGGGCTGGGGCCGAGCACTGGGGACTTTGAGGGTGGCCAGGCCAGCGTAGGAGGCCAGCGTAGGATCCTGCTGGGAGCGGGGAACTGAGGGAAGCGACGCCGAGAAAGCAGGCGTACCACGGAGGGAGAGAAAAGCTCCGGAAGCCCAGCAGCG
modifications: Synp-HYBNpJB42
notes: 6 HRE3 elements, pJB42
B8: HYBN-minTk: hypoxia-inducible promoter, SEQ ID NO: 143; 6 HRE3 elements, MinTK (nucleic acid)
DNA: AATAAAATATCTTTATTTTCATTACATCTGTGTGTTGGTTTTTTGTGTGACCTTGAGTACGTGCGTCTCTGCACGTATGGATAAACCTTGAGTACGTGCGTCTCTGCACGTATGTGCGTACCTTGAGTACGTGCGTCTCTGCACGTATGGATAAACCTTGAGTACGTGCGTCTCTGCACGTATGTGCGTACCTTGAGTACGTGCGTCTCTGCACGTATGGATAAACCTTGAGTACGTGCGTCTCTGCACGTATGTTCGCATATTAAGGTGACGCGTGTGGCCTCGAACACCGAGCGACCCTGCAGCGACCCGCTTAA
modifications: Synp-HYBNMinTK
notes: 6 HRE3 elements, MinTK

What follows are molecules tested on HEK293 cells (assay: Luciferase expression from new HRE3 hypoxia-inducible promoter designs, normoxia vs 24 h hypoxia). Details: HEK293, N=3.
Format: cell-based, human
Excerpt: Promoters were designed using HRE3 (SEQ ID NO: 9) described above. The promoters were designed around a base enhancer element: • […]gataa[…] GTATGtgcgt[…]gataaACCTTGAGTACGTGCGT CTCTGCACGTATGtgcgt[…]gataaACCTTGAGT […] (SEQ ID NO: 139) • HRE3 is in capital letters
This enhancer was operably linked with the following minimal promoters, with a 5 bp spacer between the enhancer and the minimal promoter: • YB-Tata (HYPN) • Short CMV (HYBNC) • CMV53 (HYBNC53) • MinTK (HYBNMinTK) • 30 MLP (HYBNMLP) • SV40 (HYBNSV) • pJB42 (HYBNpJB42)
This enhancer was also operably liked with another minimal promoter named TATA-m6A (HYBNTATAm6a): • […]aagcttggactaaagcggacttgtctcgag (SEQ ID NO: 101)
These new designs were transfected in HEK293 cells as described above and the results of their expression in hypoxia and normoxia are shown in FIG. 15.

Molecule	Luciferase activity in normoxia	Luciferase expression after 24 hours in hypoxia (vs normoxia)
B1	almost no luciferase activity	induced
B2	almost no luciferase activity	induced
B3	almost no luciferase activity	induced
B4	almost no luciferase activity	induced
B5	almost no luciferase activity	induced
B6	almost no luciferase activity	induced
B7	almost no luciferase activity	induced
B8	almost no luciferase activity	induced
